Biological target: rat TRPV1 ion channel (rat) (UniProt O35433)
Sequence of UniProt O35433 (O35433 whole entry): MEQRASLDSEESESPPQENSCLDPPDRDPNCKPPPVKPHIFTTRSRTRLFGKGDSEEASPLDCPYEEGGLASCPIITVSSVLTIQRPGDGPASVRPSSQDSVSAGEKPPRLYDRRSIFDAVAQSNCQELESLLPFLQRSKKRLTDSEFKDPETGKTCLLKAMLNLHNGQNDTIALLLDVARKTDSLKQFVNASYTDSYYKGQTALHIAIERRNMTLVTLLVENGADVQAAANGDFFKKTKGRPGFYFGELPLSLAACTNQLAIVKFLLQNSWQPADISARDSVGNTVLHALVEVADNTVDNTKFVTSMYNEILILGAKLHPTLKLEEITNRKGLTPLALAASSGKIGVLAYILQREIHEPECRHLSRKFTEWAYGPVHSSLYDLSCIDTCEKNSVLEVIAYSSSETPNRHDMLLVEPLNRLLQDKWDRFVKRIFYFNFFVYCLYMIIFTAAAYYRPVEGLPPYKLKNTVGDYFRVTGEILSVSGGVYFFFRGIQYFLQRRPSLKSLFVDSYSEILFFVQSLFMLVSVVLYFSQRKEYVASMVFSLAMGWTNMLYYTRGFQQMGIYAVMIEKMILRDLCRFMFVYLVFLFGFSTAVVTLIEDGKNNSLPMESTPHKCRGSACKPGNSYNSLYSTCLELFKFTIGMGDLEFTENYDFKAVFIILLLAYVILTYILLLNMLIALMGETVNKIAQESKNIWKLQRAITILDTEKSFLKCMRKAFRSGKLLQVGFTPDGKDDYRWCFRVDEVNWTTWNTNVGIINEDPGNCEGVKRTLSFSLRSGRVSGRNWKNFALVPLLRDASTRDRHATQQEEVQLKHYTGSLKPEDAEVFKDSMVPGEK

Substance	EC50 of TRPV1 activation (two-electrode voltage clamp, oocytes), fold over wild-type DkTx (fold over wild-type DkTx)
DkTx E7A (natural protein)	11
DkTx V8A (natural protein)	16

From publication PMC6326545
